Reference: IntAct's records for PubMed 20668449

B1: N-terminal Xaa-Pro-Lys N-methyltransferase 1 (Homo sapiens), Q9BV86 (parent)
chain: MTSEVIEDEKQFYSKAKTYWKQIPPTVDGMLGGYGHISSIDINSSRKFLQRFLREGPNKTGTSCALDCGAGIGRITKRLLLPLFREVDMVDITEDFLVQAKTYLGEEGKRVRNYFCCGLQDFTPEPDSYDVIWIQWVIGHLTDQHLAEFLRRCKGSLRPNGIIVIKDNMAQEGVILDDVDSSVCRDLDVVRRIICSAGLSLLAEERQENLPDEIYHVYSFALR
B2: Regulator of chromosome condensation (Homo sapiens), P18754 (parent)
chain: MSPKRIAKRRSPPADAIPKSKKVKVSHRSHSTEPGLVLTLGQGDVGQLGLGENVMERKKPALVSIPEDVVQAEAGGMHTVCLSKSGQVYSFGCNDEGALGRDTSVEGSEMVPGKVELQEKVVQVSAGDSHTAALTDDGRVFLWGSFRDNNGVIGLLEPMKKSMVPVQVQLDVPVVKVASGNDHLVMLTADGDLYTLGCGEQGQLGRVPELFANRGGRQGLERLLVPKCVMLKSRGSRGHVRFQDAFCGAYFTFAISHEGHVYGFGLSNYHQLGTPGTESCFIPQNLTSFKNSTKSWVGFSGGQHHTVCMDSEGKAYSLGRAEYGRLGLGEGAEEKSIPTLISRLPAVSSVACGASVGYAVTKDGRVFAWGMGTNYQLGTGQDEDAWSPVEMMGKQLENRVVLSVSSGGQHTVLLVKDKEQS

Variants of: B1
Details: with rcc1_human RCC1, P18754

Row | effect of a mutation on the interaction | Variant
1 | disrupting interaction | MTSEVIEDEKQFYSKAKTYWKQIPPTVDGMLGGYGHISSIDINSSRKFLQRFLREGPNKTGTSCALDCGAGIGRITKRLLLPLFREVDMVDITEDFLVQAKTYLGEEGKRVRNYFCCGLQDFTPEPDSYDVIWIQWVIGHLTDQHLAEFLRRCKGSLRPNGIIVIKDKMAQEGVILDDVDSSVCRDLDVVRRIICSAGLSLLAEERQENLPDEIYHVYSFALR [N168K]
2 | disrupting interaction | MTSEVIEDEKQFYSKAKTYWKQIPPTVDGMLGGYGHISSIDINSSRKFLQRFLREGPNKTGTSCALDCGAGIGRITKRLLLPLFREVDMVDITEDFLVQAKTYLGEEGKRVRNYFCCGLQDFTPEPDSYDVIWIQWVIGHLTDQHLAEFLRRCKGSLRPNGIIVIKDNMAQEGVILDDVKSSVCRDLDVVRRIICSAGLSLLAEERQENLPDEIYHVYSFALR [D180K]

Variants of: B2
Details: with ntm1a_human NTMT1, Q9BV86

Row | effect of a mutation on the interaction | Variant
3 | decreasing interaction | MVPKRIAKRRSPPADAIPKSKKVKVSHRSHSTEPGLVLTLGQGDVGQLGLGENVMERKKPALVSIPEDVVQAEAGGMHTVCLSKSGQVYSFGCNDEGALGRDTSVEGSEMVPGKVELQEKVVQVSAGDSHTAALTDDGRVFLWGSFRDNNGVIGLLEPMKKSMVPVQVQLDVPVVKVASGNDHLVMLTADGDLYTLGCGEQGQLGRVPELFANRGGRQGLERLLVPKCVMLKSRGSRGHVRFQDAFCGAYFTFAISHEGHVYGFGLSNYHQLGTPGTESCFIPQNLTSFKNSTKSWVGFSGGQHHTVCMDSEGKAYSLGRAEYGRLGLGEGAEEKSIPTLISRLPAVSSVACGASVGYAVTKDGRVFAWGMGTNYQLGTGQDEDAWSPVEMMGKQLENRVVLSVSSGGQHTVLLVKDKEQS [S2V]
4 | disrupting interaction strength | MDPKRIAKRRSPPADAIPKSKKVKVSHRSHSTEPGLVLTLGQGDVGQLGLGENVMERKKPALVSIPEDVVQAEAGGMHTVCLSKSGQVYSFGCNDEGALGRDTSVEGSEMVPGKVELQEKVVQVSAGDSHTAALTDDGRVFLWGSFRDNNGVIGLLEPMKKSMVPVQVQLDVPVVKVASGNDHLVMLTADGDLYTLGCGEQGQLGRVPELFANRGGRQGLERLLVPKCVMLKSRGSRGHVRFQDAFCGAYFTFAISHEGHVYGFGLSNYHQLGTPGTESCFIPQNLTSFKNSTKSWVGFSGGQHHTVCMDSEGKAYSLGRAEYGRLGLGEGAEEKSIPTLISRLPAVSSVACGASVGYAVTKDGRVFAWGMGTNYQLGTGQDEDAWSPVEMMGKQLENRVVLSVSSGGQHTVLLVKDKEQS [S2D]

Variants of: B2
Details: with ntm1a_human NTMT1, Q9BV86
Remark: another data set of the same source

Row | effect of a mutation on the interaction | Variant
5 | disrupting interaction | MSPQRIAKRRSPPADAIPKSKKVKVSHRSHSTEPGLVLTLGQGDVGQLGLGENVMERKKPALVSIPEDVVQAEAGGMHTVCLSKSGQVYSFGCNDEGALGRDTSVEGSEMVPGKVELQEKVVQVSAGDSHTAALTDDGRVFLWGSFRDNNGVIGLLEPMKKSMVPVQVQLDVPVVKVASGNDHLVMLTADGDLYTLGCGEQGQLGRVPELFANRGGRQGLERLLVPKCVMLKSRGSRGHVRFQDAFCGAYFTFAISHEGHVYGFGLSNYHQLGTPGTESCFIPQNLTSFKNSTKSWVGFSGGQHHTVCMDSEGKAYSLGRAEYGRLGLGEGAEEKSIPTLISRLPAVSSVACGASVGYAVTKDGRVFAWGMGTNYQLGTGQDEDAWSPVEMMGKQLENRVVLSVSSGGQHTVLLVKDKEQS [K4Q]
